From patent US20110269680A1, “GLP-1 ANALOGS AND USES THEREOF” (PANACEA BIOTEC LIMITED, priority 2008, published 2011)

Biological target: GLP-1 receptor
Experiment: cell-based or functional assay

EC50, Receptor Functional assay (intracellular cAMP in CHO/GLP-1R cells): 0.0503 nM
Substance: GLP-1(7-37) parent (from UniProt P01275 98-128) (peptide)
